From patent US20220363769A1 (SORRISO PHARMACEUTICALS, published 2022)
Numbering of substitutions follows the chain as printed. Numbers in names are those of the source.

T1: recombinant human IL-7Rα-His6-Fc (human, UniProt P16871 21-239)
T1 construct: also called hIL-7R; not shown: His6 tag; Fc (captured by anti-human IgG Fc)
T1 chain: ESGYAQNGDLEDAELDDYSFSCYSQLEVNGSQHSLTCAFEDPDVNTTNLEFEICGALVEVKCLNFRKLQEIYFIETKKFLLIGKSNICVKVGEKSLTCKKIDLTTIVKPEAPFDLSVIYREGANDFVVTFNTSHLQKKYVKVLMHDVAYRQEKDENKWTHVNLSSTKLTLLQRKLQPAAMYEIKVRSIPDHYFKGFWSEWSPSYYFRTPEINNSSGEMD

B1: ID-A2U (VHH)
VHH: EVQLVESGGGLVQAGGSLRLSCASSISTFSSDAMGWFRQAPGKEREFLAAIGWSGAVTHYSDSVQGRFTISRDNAKNTVYLQMNSLKSEDTGRYYCAEDYDTDVWQYWGQGTQVTVSS
notes: V7R-2E9 with E23A; produced from E. coli
B2: ID-A4U (VHH)
VHH: B1 VHH with A23E, S24A
notes: V7R-2E9 with S24A; produced from E. coli
B3: ID-A5U (VHH)
VHH: B1 VHH with A23E, I26G
notes: V7R-2E9 with I26G; produced from E. coli
B4: ID-A6U (VHH)
VHH: B1 VHH with A23E, F37V
notes: V7R-2E9 with F37V; produced from E. coli
B5: ID-A7U (VHH)
VHH: B1 VHH with A23E, E44G, R45L, F47W, L48V, A49S
notes: V7R-2E9 with 44 to 49 EREFLA to GLEWS (so in the source); produced from E. coli
B6: ID-A8U (VHH)
VHH: B1 VHH with A23E, E44G, R45L, F47W
notes: V7R-2E9 with 44 to 47 EREF to GLEW; produced from E. coli
B7: ID-A9U (VHH)
VHH: B1 VHH with A23E, E44G
notes: V7R-2E9 with E44G; produced from E. coli
B8: ID-A10U (VHH)
VHH: B1 VHH with A23E, R45L
notes: V7R-2E9 with R45L; produced from E. coli
B9: ID-A11U (VHH)
VHH: B1 VHH with A23E, F47W
notes: V7R-2E9 with F47W; produced from E. coli
B10: ID-A12U (VHH)
VHH: B1 VHH with A23E, L48V
notes: V7R-2E9 with L48V; produced from E. coli
B11: ID-A13U (VHH)
VHH: B1 VHH with A23E, A49S
notes: V7R-2E9 with A49S; produced from E. coli
B12: ID-A14U (VHH)
VHH: B1 VHH with A23E, Q65K
notes: V7R-2E9 with Q65K; produced from E. coli
B13: ID-A15U (VHH)
VHH: B1 VHH with A23E, V79L
notes: V7R-2E9 with V79L; produced from E. coli
B14: ID-A16U (VHH)
VHH: B1 VHH with A23E, K87R
notes: V7R-2E9 with K87R; produced from E. coli
B15: ID-A17U (VHH)
VHH: B1 VHH with A23E, S88A
notes: V7R-2E9 with S88A; produced from E. coli
B16: ID-A18U (VHH)
VHH: B1 VHH with A23E, S88T
notes: V7R-2E9 with S88T; produced from E. coli
B17: ID-A19U (VHH)
VHH: B1 VHH with A23E, G92A
notes: V7R-2E9 with G92A; produced from E. coli
B18: ID-A20U (VHH)
VHH: B1 VHH with A23E, R93V
notes: V7R-2E9 with R93V; produced from E. coli
B19: ID-A21U (VHH)
VHH: B1 VHH with A23E, Q113L
notes: V7R-2E9 with Q113L; produced from E. coli
B20: ID-A23U (VHH)
VHH: B1 VHH with A23E, E44G, R45L, F47W, Q65K, K87R, S88A
notes: V7R-2E9 with E44G, R45L, F47W, Q65K, K87R, S88A
B21: ID-A24U (VHH)
VHH: B1 VHH with A23E, R45L, F47W, Q65K, K87R, S88A
notes: V7R-2E9 with R45L, F47W, Q65K, K87R, S88A
B22: ID-A25U (VHH)
VHH: B1 VHH with A23E, E44G, F47W, Q65K, K87R, S88A
notes: V7R-2E9 with E44G, F47W, Q65K, K87R, S88A
B23: ID-A26U (VHH)
VHH: B1 VHH with A23E, E44G, R45L, Q65K, K87R, S88A
notes: V7R-2E9 with E44G, R45L, Q65K, K87R, S88A
B24: ID-A27U (VHH)
VHH: B1 VHH with A23E, E44G, R45L, F47W, K87R, S88A
notes: V7R-2E9 with E44G, R45L, F47W, K87R, S88A

Experiments:
[1] = molecular target: T1, recombinant human IL-7Rα-His6-Fc; test: IL-7/IL-7R neutralisation ELISA; inhibition of IL-7 binding to IL-7R
Procedure: A 7-point dilution series of the clones was prepared in 1% BSA (at 2× the assay concentration) starting at 300 nM and using a 3.2 dilution factor. […] Block buffer alone was also added to each plate as blank. […] TMB reaction was stopped after 30 minutes. […]

[2] = molecular target: T1, recombinant human IL-7Rα-His6-Fc; test: IL-7/IL-7Rα-His6-Fc ELISA; inhibition of IL-7 binding to IL-7R

Binder | EC50 [1] | EC50 [2]
B1 | 0.475 nM | 
B2 | 0.489 nM | 
B3 | 0.49 nM | 
B4 | 0.194 nM | 
B5 | 0.513 nM | 
B6 | 0.604 nM | 
B7 | 0.168 nM | 
B8 | 0.529 nM | 
B9 | 0.175 nM | 
B10 | 0.179 nM | 
B11 | 0.615 nM | 
B12 | 0.15 nM | 
B13 | 0.146 nM | 
B14 | 0.446 nM | 
B15 | 0.493 nM | 
B16 | 0.214 nM | 
B17 | 0.188 nM | 
B18 | 0.139 nM | 
B19 | 0.436 nM | 
B20 |  | 0.854 nM
B21 |  | 0.819 nM
B22 |  | 0.835 nM
B23 |  | 0.841 nM
B24 |  | 0.395 nM
